# Measurements published in US20240025949A1, “Beta-Arrestin Effectors and Compositions and Methods of Use Thereof” (Trevena, Inc., priority 2021, published 2024).
# Where no end group is shown, it is not given here.
# T1: rat AT1aR (Rattus norvegicus, UniProt P25095)
# T1 construct: ProLink (β-galactosidase enzyme-donor fragment, from the pCMV-ProLink vector)
# T1 sequence (P25095 1-359): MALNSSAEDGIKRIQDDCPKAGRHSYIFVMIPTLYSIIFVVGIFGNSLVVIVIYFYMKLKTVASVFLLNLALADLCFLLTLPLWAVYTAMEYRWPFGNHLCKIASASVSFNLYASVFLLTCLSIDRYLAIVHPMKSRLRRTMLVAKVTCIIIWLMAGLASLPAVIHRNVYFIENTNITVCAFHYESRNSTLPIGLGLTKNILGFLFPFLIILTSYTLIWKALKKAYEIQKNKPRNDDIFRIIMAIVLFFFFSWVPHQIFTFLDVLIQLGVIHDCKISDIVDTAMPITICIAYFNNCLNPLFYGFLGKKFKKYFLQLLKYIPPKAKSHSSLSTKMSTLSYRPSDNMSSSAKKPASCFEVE
# What was measured:
# [1] = target: T1, rat AT1aR; test: PathHunter β-arrestin-2 recruitment assay, rat AT1aR; type: cell-based; conditions: PathHunter β-arrestin HEK293 cells, inactive = EC50 greater than 10 uM
# [2] = target: rat angiotensin 2 type 1 receptor (rat) (UniProt P25095); test: cell-based or functional assay
# [3] = target: human angiotensin 2 type 1 receptor (human) (UniProt P30556); test: cell-based or functional assay
# Chain of human angiotensin 2 type 1 receptor (human) (P30556 whole entry): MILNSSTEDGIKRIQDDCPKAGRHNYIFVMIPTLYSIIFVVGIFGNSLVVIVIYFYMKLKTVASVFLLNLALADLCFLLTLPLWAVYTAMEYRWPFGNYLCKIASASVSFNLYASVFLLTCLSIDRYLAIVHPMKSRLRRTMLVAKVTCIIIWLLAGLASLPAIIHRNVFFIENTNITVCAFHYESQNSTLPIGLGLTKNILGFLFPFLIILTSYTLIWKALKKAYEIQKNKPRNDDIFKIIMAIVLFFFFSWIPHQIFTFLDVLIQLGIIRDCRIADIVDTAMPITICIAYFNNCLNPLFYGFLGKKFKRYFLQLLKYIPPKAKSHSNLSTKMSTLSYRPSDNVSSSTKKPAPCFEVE
rat AT1aR b-arrestin2 EC50 (M) [1],IP One EC50 [2] [nM],b-arrestin2 EC50 [2] [nM],b-arrestin2 Max [2] [%],IP One EC50 [3] [nM],b-arrestin2 EC50 [3] [nM],b-arrestin2 Max [3] [%],IP One Max [2] [%],IP One Max [3] [%],Molecule
inactive,,,,,,,,,CCCCC(=O)N(Cc1ccc(-c2ccccc2-c2nnn[nH]2)cc1)[C@H](C(=O)O)C(C)C [Valsartan]
,> 10000,530,50.1,> 10000,530,35.9,,,DRVYFHP-NH2 [SEQ ID NO: 63 (Asp-Arg-Val-Tyr-Phe-His-Pro-NH2)]
,1400,260,81.1,> 10000,330,48.7,9.94,,DRVYYHP (D-residue; C-terminal amide) [SEQ ID NO: 58 (D-Asp-Arg-Val-Tyr-Tyr-His-Pro-NH2)]
,3.5,6.1,80.7,> 10000,3.4,58.9,24.4,,RVYVHPI (N-terminal Sar; C-terminal acid) [SEQ ID NO: 11 (Sar-Arg-Val-Tyr-Val-His-Pro-Ile-OH)]
,79,120,34.4,190,390,19.9,44.9,20.7,RVYVHPI (N-terminal Sar; C-terminal amide) [SEQ ID NO: 12 (Sar-Arg-Val-Tyr-Val-His-Pro-Ile-NH2)]
,> 10000,180,79.3,> 10000,340,44,,,ERVYYHP (D-residue; C-terminal amide) [SEQ ID NO: 60 (D-Glu-Arg-Val-Tyr-Tyr-His-Pro-NH2)]
,> 10000,3900,44.2,> 10000,1300,24.7,,,ERVYYHP (N-methyl; C-terminal amide) [SEQ ID NO: 62 (N-Me-Glu-Arg-Val-Tyr-Tyr-His-Pro-NH2)]
,> 10000,2100,60.4,> 10000,1200,37.5,,,DRVYYHP (N-methyl; C-terminal amide) [SEQ ID NO: 61 (N-Me-Asp-Arg-Val-Tyr-Tyr-His-Pro-NH2)]
,> 10000,43000,165,> 10000,4600,43.4,,,RVYIHP-NH2 [SEQ ID NO: 13 (Arg-Val-Tyr-Ile-His-Pro-NH2)]
,32,14,79,160,8,59.3,19.3,13.5,RVYYHPI (N-terminal Sar; C-terminal acid) [SEQ ID NO: 14 (Sar-Arg-Val-Tyr-Tyr-His-Pro-Ile-OH)]
,> 10000,820,27.8,> 10000,1400,19.5,,,ERVYYHP-NH2 [SEQ ID NO: 59 (Glu-Arg-Val-Tyr-Tyr-His-Pro-NH2)]
